Measured values taken from ChEMBL document CHEMBL2074064, “Uptake of cyclic dipeptide by PEPT1 in Caco-2 cells: phenolic hydroxyl group of substrate enhances affinity for PEPT1” (J Pharm Pharmacol, 2002).

Tests used:
Format in all cases: functional, cell-based
[1] = substrate: O=C1CNC(=O)[C@H](Cc2ccc(O)cc2)N1; test: (§1) TP_TRANSPORTER: uptake in Caco-2 cells
[2] = substrate: O=C1CNC(=O)[C@H](Cc2ccccc2)N1; test: as §1
[3] = substrate: O=C1N[C@@H](Cc2ccc(O)cc2)C(=O)N[C@H]1CO; test: as §1
[4] = substrate: O=C1N[C@@H](Cc2ccccc2)C(=O)N[C@H]1CO; test: as §1

B1: Solute carrier family 15 member 1 (Homo sapiens), P46059 (protein)
chain: MGMSKSHSFFGYPLSIFFIVVNEFCERFSYYGMRAILILYFTNFISWDDNLSTAIYHTFVALCYLTPILGALIADSWLGKFKTIVSLSIVYTIGQAVTSVSSINDLTDHNHDGTPDSLPVHVVLSLIGLALIALGTGGIKPCVSAFGGDQFEEGQEKQRNRFFSIFYLAINAGSLLSTIITPMLRVQQCGIHSKQACYPLAFGVPAALMAVALIVFVLGSGMYKKFKPQGNIMGKVAKCIGFAIKNRFRHRSKAFPKREHWLDWAKEKYDERLISQIKMVTRVMFLYIPLPMFWALFDQQGSRWTLQATTMSGKIGALEIQPDQMQTVNAILIVIMVPIFDAVLYPLIAKCGFNFTSLKKMAVGMVLASMAFVVAAIVQVEIDKTLPVFPKGNEVQIKVLNIGNNTMNISLPGEMVTLGPMSQTNAFMTFDVNKLTRINISSPGSPVTAVTDDFKQGQRHTLLVWAPNHYQVVKDGLNQKPEKGENGIRFVNTFNELITITMSGKVYANISSYNASTYQFFPSGIKGFTISSTEIPPQCQPNFNTFYLEFGSAYTYIVQRKNDSCPEVKVFEDISANTVNMALQIPQYFLLTCGEVVFSVTGLEFSYSQAPSNMKSVLQAGWLLTVAVGNIIVLIVAGAGQFSKQWAEYILFAALLLVVCVIFAIMARFYTYINPAEIEAQFDEDEKKNRLEKSNPYFMSGANSQKQM
Km [1]: 62.9 µM
Km [2]: 90.9 µM
Km [3]: 21.9 µM
Km [4]: 118 µM
